Data on 2 molecules can be found in patent publication US20130252887A1 (BETH ISRAEL DEACONESS MEDICAL CENTER, published 2013).

Assay [1] addresses T1, Beta2-glycoprotein I (β2GPI), full-length, human (human, UniProt P02749 20-345).
T1 construct: mature; Two preparations of the same native protein were used, serum and purified from plasma; the assay field of each row says which; Where anti-β2GPI antibodies (Cedarlane CL20021HP, peroxidase-conjugated) were present, β2GPI stood as dimeric β2GPI/antibody complexes; also called B2GPI; β2GPI in normal human serum
T1 sequence (looked up): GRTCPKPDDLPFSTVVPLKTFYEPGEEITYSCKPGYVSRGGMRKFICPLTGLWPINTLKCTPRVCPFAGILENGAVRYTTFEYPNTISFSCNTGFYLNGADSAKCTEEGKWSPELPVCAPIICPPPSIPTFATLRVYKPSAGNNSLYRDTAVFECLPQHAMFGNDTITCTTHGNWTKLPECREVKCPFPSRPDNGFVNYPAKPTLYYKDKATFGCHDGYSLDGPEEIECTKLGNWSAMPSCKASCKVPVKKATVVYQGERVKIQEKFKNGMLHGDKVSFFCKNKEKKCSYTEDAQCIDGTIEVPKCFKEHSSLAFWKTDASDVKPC
Kind of assay: inhibition of binding of 10 nM β2GPI purified from plasma to a cardiolipin-coated plate, with anti-β2GPI antibodies present; OD405, one-site inhibition fit. The procedure: Next, we analyzed how A1-A1 and A1 inhibit the binding of purified β2GPI to cardiolipin. […] We used β2GPI purified from human plasma available from Haematologic Technologies, Inc. and analyzed the binding and inhibition of the binding of purified β2GPI by A1-A1 and A1 in the presence and in the absence of anti-β2GPI antibodies. […] We incubated 10 nM of β2GPI with various concentrations of the dimeric, A1-A1, and monomeric, A1, inhibitors in the presence of anti-β2GPI antibodies. […] In a separate experiment, we measured the inhibition of β2GPI in the presence of antibodies and compared the measured values to values predicted by the fit of the titration data (FIG. 4C). The measured values were close to those expected from the fit, additionally confirming that in the presence of anti-β2GPI antibodies a much lower concentration of A1-A1 was required to inhibit 50% of the binding of purified β2GPI to cardiolipin compared to A1. […] Similarly to what we observed for β2GPI in serum, the binding of purified β2GPI to cardiolipin in the presence of anti-β2GPI antibodies was inhibited more strongly by the dimeric inhibitor A1-A1 than by A1. Both, A1-A1 and A1, were ineffective in the inhibition of β2GPI in the absence of anti-β2GPI antibodies. […]

Assay [2] concerns the target T1, Beta2-glycoprotein I (β2GPI), …. Nature of the assay: inhibition of binding of β2GPI in 0.04% human serum to a cardiolipin-coated plate, with anti-β2GPI antibodies present (β2GPI/antibody complexes); OD405, one-site fit. The text has this: (§1) We compared the dimeric inhibitor, A1-A1, to monomeric A1 on the inhibition of binding of β2GPI/anti-β2GPI antibody complexes to cardiolipin. First, we used pooled normal human serum as a source of β2GPI. The majority of the β2GPI molecules in serum is in the circular form (Agar et al., Blood, 2010). To select the appropriate concentration of β2GPI for the inhibition studies, we measured the binding of β2GPI to cardiolipin (FIG. 2A). To create β2GPI/anti-β2GPI complexes, anti-β2GPI antibodies at constant concentration were added to β2GPI before the samples were applied to cardiolipin. […] We then compared the efficiency of A1-A1 and A1 for the inhibition of the binding of β2GPI in serum to cardiolipin in the presence of anti-β2GPI antibodies (FIG. 2B). 0.04% of human serum, which is in the linear region of the binding curve, was incubated on a cardiolipin-coated surface in the presence of anti-β2GPI antibodies and the inhibitors. In the presence of anti-β2GPI antibodies, the dimeric molecule, A1-A1, inhibited the binding to cardiolipin of β2GPI in serum much stronger than monomeric A1. […] Also, we measured how A1-A1 and A1 inhibited the binding of β2GPI in serum in the absence of anti-β2GPI antibodies (FIG. 3). A 1% solution of human serum was titrated with A1-A1 or A1 and β2GPI bound to cardiolipin was subsequently detected with anti-β2GPI antibodies. […]

For assay [3], the target named is T2, isolated recombinant domain V of β2GPI (residues 244-326) with N-terminal HA peptide tag (UniProt P02749 263-345).
T2 construct: range 244-326; Expressed in E. coli from pET15b with a His tag that was removed with TEV protease; The HA-tagged form was used in the cardiolipin assays, where it was detected or dimerized with anti-HA antibody Abcam ab1265; also called β2GPI-DV; individual domain V of β2GPI
T2 sequence: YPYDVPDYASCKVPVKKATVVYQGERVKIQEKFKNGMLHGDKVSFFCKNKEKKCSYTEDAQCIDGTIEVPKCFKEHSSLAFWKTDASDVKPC
Nature of the assay: inhibition of binding of 30 nM HA-tagged β2GPI-DV to a cardiolipin-coated plate, with anti-tag (anti-HA) antibody present (dimeric complexes); OD405, one-site fit. The method, then:
As we observed for the inhibition of the binding of β2GPI in human serum and purified β2GPI to cardiolipin-coated surfaces, the isolated domain V was inhibited much stronger by the dimeric inhibitor A1-A1 compared to monomeric A1 in the presence of dimeric β2GPI-DV/anti-tag antibody complexes.
Cardiolipin-coated 96 well plates available as part of the ImmunoWELL cardiolipin IgG test kit (GenBio) were blocked with 0.5% of skim milk and 2% BSA in 20 mM Tris, 100 mM NaCl, 2 mM CaCl₂, pH 7.4. The assay buffer contained 20 mM Tris, 100 mM NaCl, 2 mM CaCl₂, pH 7.4 with 2% BSA and the wash buffer was 20 mM Tris, 100 mM NaCl, 2 mM CaCl₂, pH 7.4. When the purified β2GPI (Haematologic Technologies, Inc.) was used in experiments, 27 mM glycine was added to the assay buffer to account for glycine present in the stock solution of β2GPI. β2GPI bound to cardiolipin was detected with peroxidase-conjugated anti-β2GPI antibodies (Cedarlane, CL20021HP, 2 mg/ml) diluted 1:2500. […] The peroxidase activity of the bound antibodies was detected using 2-2′-azino-di-[3-ethylbenzthizzoline]sulfonate (ABTS) chromogenic reagent by measuring OD at 405 nm. […] The fits of the raw data and the titration data points were then normalized to the maximum binding determined from the fit to facilitate comparison. […]

For assay [4], the target named is T2, isolated recombinant domain V of β2GPI …. Nature of the assay: inhibition of binding of isolated HA-tagged β2GPI-DV to a cardiolipin-coated plate, without dimerization antibodies; OD405, one-site fit. The method, then: Cardiolipin-coated 96 well plates available as part of the ImmunoWELL cardiolipin IgG test kit (GenBio) were blocked with 0.5% of skim milk and 2% BSA in 20 mM Tris, 100 mM NaCl, 2 mM CaCl₂, pH 7.4. The assay buffer contained 20 mM Tris, 100 mM NaCl, 2 mM CaCl₂, pH 7.4 with 2% BSA and the wash buffer was 20 mM Tris, 100 mM NaCl, 2 mM CaCl₂, pH 7.4. When the purified β2GPI (Haematologic Technologies, Inc.) was used in experiments, 27 mM glycine was added to the assay buffer to account for glycine present in the stock solution of β2GPI. β2GPI bound to cardiolipin was detected with peroxidase-conjugated anti-β2GPI antibodies (Cedarlane, CL20021HP, 2 mg/ml) diluted 1:2500. […] The peroxidase activity of the bound antibodies was detected using 2-2′-azino-di-[3-ethylbenzthizzoline]sulfonate (ABTS) chromogenic reagent by measuring OD at 405 nm. […] The fits of the raw data and the titration data points were then normalized to the maximum binding determined from the fit to facilitate comparison.
For the inhibition studies, increasing concentrations of A1 or A1-A1 were added to a constant amount of β2GPI ([…]), normal human serum (1%) or β2GPI-DV (130 nM) and incubated for 1 hour at room temperature. […] Then, samples were incubated on wells for an additional 1 hour and, after washing, the bound β2GPI/anti-β2GPI or β2GPI-DV/anti-tag antibody complexes were detected.

For assay [5], the target named is T1, Beta2-glycoprotein I (β2GPI), …. Kind of assay: inhibition of binding of β2GPI in 1% human serum to a cardiolipin-coated plate, without anti-β2GPI antibodies during binding (monomeric β2GPI); OD405, one-site fit.
Description: as §1

B1: monomeric A1 (first LA module of mouse ApoER2, residues 12-47 of the mature protein) (receptor)
chain: not shown
notes: range 12-47; Residues 12-47 are counted on the mature protein, not the precursor; also called A1 module
With B1, the IC50 in assay [1] was 191 µM; in assay [2], 218 µM; in assay [3] it was 204 µM; in assay [4], 188 µM; in assay [5], 176 µM.

B2: dimeric inhibitor A1-A1 (two A1 ligand-binding LA modules of ApoER2 connected by a Gly-Ser-Ser-Gly linker) (designed binder)
chain: AECEEDQFRCRNERCIPLVWRCDEDNDCSDNSDEDDCGSSGCEEDQFRCRNERCIPLVWRCDEDNDCSDNSDEDDCEA
In the case of B2, the IC50 in assay [1] amounted to 26 µM; in assay [2], 10 µM; in assay [3] it was 12 µM; in assay [5], 189 µM.

What is called IC50 is the point on the concentration scale where inhibition reaches its midpoint.
